Assay results reported in the NTF2 design screens of Basanta et al. (2020).

Assay: protease stability score; higher = more stable; yeast display proteolysis, trypsin and chymotrypsin;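 further: relative to predicted unfolded state with 0 unfolded-like and 1 meaning tenfold more protease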
With “SEEEEIVREALKIWFHAMITGDERTLNEMVDPNVRVDVDGKELIGRKHMVELLRRFKNITIRHWHIKHLDIQGDKIEIDTRLDVEVNGRQEILTEKFHARKVDGRWFLSTREER” the protease stability score was 2.19. “SEHDHHSEWMSRLMFEAWLTGDEDFIMHLADPNTRSHLHYGDKEVNLHGRESFKRMVEELHRELGANHRDLKEVRLQGDKSLLRLEVRVGDKRREQHIIIIIVNGRVKSITVEVR” gave a protease stability score of 0.874. Work on “SEEQENAERILRMWIHALETGDEHTQKRLLDPNVRDEVNGVEFHGRERAVKLMNDLHEELRIKDWIPRDIHLVNGVLILHVEVRLEVDGQSRNHEVIIVIKKVNGRWFIHRIHVR” yielded a protease stability score of 1.45. Work on “SEHDEHLQRNWERFLHHIETGDWRDHEENADPHARVHIGEFDLHGREKFSELFMRLGVKHIEIQRLIVQGDKITADTVVHYGDKRLKTNIFVTKINGRWQLHSIEMR” yielded a protease stability score of 1.42. “TELEEEAKKYQDFFVTIVVTGDEDSFINLFDPNVRSVVNGRKLHGMHKWKRYIEELLRKIKNLRFELTIHEVNVIDGKVESHMELILRINGVEQRHDLNVHAEKFDGRWLYREIEIR” gave a protease stability score of 1.46. For “DEEDEILERNFRKMLEDWKTGDEEMYSKLIDPHAKVDYNGREFVGREYAVEVWHKMGVDHIILRRSDVQGDKIKLDFESRQGDKSSNLKMESEKVNGVWLLHSVRYE”, the protease stability score was 1.11. “REDEREAEEFLRKLLHDIRTGDEESISRMIDPHVRVIYNGVEVIGRERALEVFKKFLEEIRIDTYHVHKVDMINGKMHADTRLRWEINGQRDTSTMLIVVEKVNGRWFLHSVVIS” gave a protease stability score of 1.97. Sequence “SEEEEEVLRFLKEWIHRLRTGDEDILRELLDPDVRIEAENRESHGREEATRLLSEIRFEHFFIESIKVQGNKVSIHGRVHGVINGKKFKHHIHIILVKVNGKWQFREIDIH” has a protease stability score of -0.107. For “DEKRKEMEQLARIIIHLWETGDEEKWREYADPNTRLDVDGRNSHGMHNTLEVLRRRLEELGFDHVEMEIKHITVIGDKAQINGKVHLYWNGKTIDVPSEIIIVIINGRLHSIELRHE”, the protease stability score was 1.44. With “DEATKDAERIIEMFIRAIETGDEKVFKRLLDPNVRLVVDGKEFHGREKFIEWLRRIDVTHQVHFRLHDSDMQGDKLHLDSSEIHDVKYNGVRFVDHYRVHLQIHKFDGRWHLENIIIR” the protease stability score was 1.51. Sequence “NEWQEILLRISEKILKDLFTGNEEVWEKLVDPDAQVHINGKEVHGREEALHFLKELKDELRVEHLFIRDVKLQGDKVSLTSESRGNVNGVRRDMKVEIIVIVINGRVKHEKFIII” has a protease stability score of 1.37. With “DEDERERRWIYQLFLYLFITGDFHTLENLFDPHMRLHYGNKEYHGREEVSKTMLKIWRDLGVKYLSLRHFHIEIFNGRVSLHFYGEQDINGVHRDIEFRVDLVKINGKWVIEQIDLRIN” the protease stability score was 1.62. “SEDEKMIEDASELHIDYFLTGDEESMEKLADPSVKLEQGDKDQHGREQHSKWYKELREELGIKHMRVDDVKFRLINGRLTLLIRGTLHVGDKSWDVHFILISEKIDGKWVIRNMIISYS” gave a protease stability score of 1.32. In the case of “SEHDELVKRNLEEMIRAAETGDEEKLRQLMDPHVKLEVNGREFVGREHWERFFREVIHRFGVTRIEIILHRIHDIDGRIYVDGTEVYGDYFERSLWISLKVNGKWVITHQHIH”, the protease stability score is reported as 0.336. With “SDIEDHAIEFFSNELWSWHTGDEHDLKKLLDPNARIYINGVEVHGRERVLEDLIENMRRRGVRVNEVRVRDFHIVGNFLHFDVRIKYRVGDKILTYEVRILVLKIDGVWFFSELRIE” the protease stability score was 1.55. Sequence “SEMEEHAERVWRIMLTLLLTGDEEKFNHLADPNTRLIIIIGDKELHFHGRHEISNYLHRYLREIRIDHFHEHSITVQGNWVHTDGIMLGRFDGKRHEIRVHIHLIVIDGRIKEIYLENR” has a protease stability score of 1.64. “DEDEKVVKLVFNEIREARRTGDEEKLHELFDPHVRLEQGDKNIHGREYMITQWRELRFHDYRINITHRTTYNGVAKVDGEVSVDYRIDGVRFHDKFRIKIVILKFDGRWMIHSEHIE” gave a protease stability score of 0.822. “DEHEELLRRIFELLLHALKTGDEDLLYKMADPNTRSIIGDKIHHGMEEHRKAVEKWLREMGVKHIEIKRVHIQGEKIHIDTHWKVGDKSETVKINIHVIDGRLTEIHIEIE” gave a protease stability score of 1. “DEEEEDAERLLRELITWLYTGDFESLEKLMDPTTKLIQGDKTFIGREYLSKLFHDWGHTNVRAKLEDIKVVNGQVHIYGRLHYGDKTSETHFIVRKVNGKWLIKIVEFR” gave a protease stability score of 1.62. “DEERHDAEEASREIMRSYETGDETEYLNLLDPHARMTVGDKEFHGREDILRWWHELNEKLGVDRIHLHLEHIRVINGVVESHVRLNVNGREHRVELLVYKVNGRWLIREMHFR” showed a protease stability score of 1.68.
